According to PMC4863159:
Where “and” joins values, the source holds several entries; their conditions need not be identical. Identical values can stand only once. Values belong to the substance of their own block, whether it stands above or below them.

Tests used:
[1] = target: C-CRD-RHCC-C-CRD fusion protein (not stated | Staphylothermus marinus); experiment: cross-linking; disulfide-linked oligomers of purified, oxidized CRD-RHCC fusion proteins in non-reducing SDS-PAGE; samples heat-denatured; control: reduced and treated with 60 mM iodoacetamide (IAA)
[2] = target: C-CRD-RHCC-C-CRD fusion protein (not stated | Staphylothermus marinus); experiment: cross-linking; spontaneous disulfide cross-linking of CRD-RHCC fusion proteins over time; loss of the dimer band into polymers on anti-His Western blot, samples every 30 minutes for 4 hours, single exponential decay fit (y = e^-x/tau)
[3] = target: C9A/C18A C-CRD mutant (CRD-RHCC fusion protein); experiment: western blot densitometry of the dimer band over time (spontaneous disulfide cross-linking); details: no reducing agent added, read off a plot
[4] = target: N-CRD-RHCC-N-CRD fusion protein (not stated | Staphylothermus marinus); experiment: cross-linking; disulfide-linked oligomers of purified, oxidized CRD-RHCC fusion proteins in non-reducing SDS-PAGE; samples heat-denatured; control: reduced and treated with 60 mM iodoacetamide (IAA)
[5] = target: N-CRD-RHCC-N-CRD fusion protein (not stated | Staphylothermus marinus); experiment: cross-linking; spontaneous disulfide cross-linking of CRD-RHCC fusion proteins over time; loss of the dimer band into polymers on anti-His Western blot, samples every 30 minutes for 4 hours, single exponential decay fit (y = e^-x/tau)
[6] = target: right-handed coiled-coil domain (RHCC) from Staphylothermus marinus, lacking CRDs (Staphylothermus marinus); experiment: SDS-PAGE at low SDS concentration; purified RHCC on SDS-PAGE with a low SDS concentration to preserve the tetrameric coiled-coil; monomer lane beside it

stoichiometry N [1]: 3 and 2 | τ (decay of the dimer band into polymers) [2]: 88 min
Substance: C-CRD-RHCC-C-CRD fusion protein

other: dimer loss (normalized) ([3]; t = 30 min, parent: est. 0.82): 1 | other: dimer loss (normalized) ([3]; t = 60 min, parent: est. 0.38): 0.91 | other: dimer loss (normalized) ([3]; t = 90 min, parent: est. 0.29): 0.92 | other: dimer loss (normalized) ([3]; t = 120 min, parent: est. 0.23): 0.98 | other: dimer loss (normalized) ([3]; t = 180 min, parent: est. 0.23): 1 | other: dimer loss (normalized) ([3]; t = 240 min, parent: est. 0.22): 1
Substance: C-CRD-RHCC-C-CRD fusion protein C9A; C18A

stoichiometry N [4]: 2 | τ (decay of the dimer band into polymers) [2]: 251 min | τ (decay of the dimer band into polymers) [5]: 340 min
Substance: N-CRD-RHCC-N-CRD fusion protein

stoichiometry N [6]: 4
Substance: right-handed coiled-coil domain (RHCC) from Staphylothermus marinus, lacking CRDs (domain or fragment)
